Data from US20160145322A1 (CRUCELL HOLLAND B V, published 2016).

T1: Sym-1706 (RSV G central conserved domain (CCD) peptide, type A 145-184) (Respiratory syncytial virus type A, N-terminal biotin)
T1 construct: Synthetic peptide, C-terminally truncated against Sym-1705
T1 peptide: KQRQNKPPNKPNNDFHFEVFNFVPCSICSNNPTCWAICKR

T2: Sym-1789 (RSV-G type B central region peptide 145-184) (Respiratory syncytial virus type B, N-terminal biotin)
T2 construct: Synthetic peptide, C-terminally truncated against Sym-1788
T2 peptide: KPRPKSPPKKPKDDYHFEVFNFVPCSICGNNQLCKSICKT

T3: Sym-1705 (RSV-G type A central region peptide 145-201) (Respiratory syncytial virus type A, not fully specified; N-terminal biotin)
T3 construct: Synthetic peptide
T3 peptide: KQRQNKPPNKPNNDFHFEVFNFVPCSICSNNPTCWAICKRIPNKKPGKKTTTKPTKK

T4: Sym-1788 (RSV-G type B central region peptide 145-201) (Respiratory syncytial virus type B, N-terminal biotin)
T4 construct: Synthetic peptide
T4 peptide: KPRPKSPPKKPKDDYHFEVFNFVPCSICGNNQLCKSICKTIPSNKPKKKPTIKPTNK

T5: Recombinant RSV attachment protein (G protein) corresponding to RSV B/B1 (Respiratory syncytial virus B/B1, UniProt O36633 65-299)
T5 construct: also called RSV Gb; Gb
T5 sequence: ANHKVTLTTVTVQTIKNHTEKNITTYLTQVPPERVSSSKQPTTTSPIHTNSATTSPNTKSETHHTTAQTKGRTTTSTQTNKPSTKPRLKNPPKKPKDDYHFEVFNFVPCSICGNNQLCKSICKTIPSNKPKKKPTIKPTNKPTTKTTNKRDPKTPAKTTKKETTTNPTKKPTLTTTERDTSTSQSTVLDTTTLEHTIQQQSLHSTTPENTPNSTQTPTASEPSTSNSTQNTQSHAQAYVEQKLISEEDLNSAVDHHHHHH

T6: G protein of RSV A/Long (ATCC Cat. No. VR-26), on virus (Respiratory syncytial virus A/Long, UniProt P20895 1-298)
T6 sequence (looked up): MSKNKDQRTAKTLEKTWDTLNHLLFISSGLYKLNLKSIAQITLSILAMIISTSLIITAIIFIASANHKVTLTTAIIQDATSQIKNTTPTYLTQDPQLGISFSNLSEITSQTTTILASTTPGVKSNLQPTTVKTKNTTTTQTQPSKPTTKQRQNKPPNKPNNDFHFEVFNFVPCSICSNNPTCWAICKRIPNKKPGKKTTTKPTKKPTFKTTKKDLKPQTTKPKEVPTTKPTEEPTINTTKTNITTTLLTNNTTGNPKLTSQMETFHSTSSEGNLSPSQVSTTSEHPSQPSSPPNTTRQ

B1: CB071.1L (antibody, V domains shown)
VH: QVQLVQSGAEVKKPGSSVRVSCKASGGTFSRYVITWVRQAPGQGLEWMGGSIPIIDTSTYAQKFQDRVTITADKSTSTVYLELSSLRPEDTAIYYCAKVFFFSNSSGPPTEGPAFDVWGQGTMVTVSS
VL: SYELTQPPSVSVSPGQTASITCSGHELGDKYVSWYQQKPGQSPVLLIYQDTNRPAGIPERFSGSNSGSTAFLTISATQAMDEADYYCQAWDNSHVVFGGGTKLTVL
notes: Tested as human IgG from the pCP9-lambda vector
B2: CB076.2L (antibody, V domains shown)
VH: QVQLVQSGAEVKKPGSSVKVSCKTSGDTFSNYVVSWVRQAPGQGLEWMGGIIPMFGTTNYAQRFQGRVTISADESTSTAYMEMSSLKSEDTAVYYCARDRYYEVRAGGKVLNTYYYMDVWGKGTTVTVSS
VL: SSELTQDPAVSVALGHTVRITCQGDSLRSYYTNWYQQKPGQAPVLVIFGEDNRPSGIPDRFSGSSSGDTASLTITGTQAEDEADYYCNSRDSSGNLWVFGGGTKLTVL
notes: as for B1
B3: CB079.1 (antibody, V domains shown)
VH: EVQLVESGGDLVQPGGSLRLSCSASGFVFTSYSFHWVRQAPGKGLEYVSSVSADGGSTYYADSVRGRFLISRDNSKNTLSLQMSSLRPDDTALYYCVPQPSLLWFGDLRSWGQGTLVTVSS
VL: DIVMTQSPLSLPVTPGEPASISCRSSQSLLHSNGYNYLDWYLQKPGQSPQLLIYLSSNRASGVPDRFSGSGSGTDFTLKISRVEAEDIGIYYCMQSLQTLTFGQGTRLEIK
notes: Tested as human IgG from the pCP9-kappa vector
B4: CB028.1 (antibody, V domains shown)
VH: QVQLVQSGAEVKKPGASVQVSCKTSGYTFSSYGISWVRQAPGQGPEWMGWISTHIGTTNYAQKLQGRVTMTTDTSTTTAYMELRSLRSDDTAVYYCARDLAKWYCSGDTCFCSGGRCYSDHWGQGTLVTVSS
VL: DIQMTQSPSSLSASVGDRVTITCRASQSINDCLNWYQQKPGQAPKLLISAASNLQSGVPSRFSGSGSETDFTLTISSLQPEDFAAYYCQQSFSTPLTFGGGTKVEIK
notes: as for B3
B5: CB072.1L (antibody, V domains shown)
VH: QLQLQESGPGLVKPSETLSLTCTVSGGSISSNIHYWAWIRQTPGKGLEWIGYMFYGGVAFYNPSLKSRVAISVDTSKNQFSLRLTSASAADTAVYYCARVLVASTNWFDPWGQGTLVTVSS
VL: SYVLTQPPSVSVAPGGTARITCGGDNIGTKGVHWYQQKPGQAPVLVMYYNSDRPTGVPERFSGSNSGNTATLTISRLEAGDEADYYCHVWDSSGSDHVEVFGGGTKLTVL
notes: Tested as human IgG from the pCP9-lambda vector; also called CB072.IL
B6: CB017.3L (antibody, V domains shown)
VH: QVQLVESGGGVVQPGGSLRLSCEASGFMFSVYAIHWVRQAPGKGLEWVAVIWHDGSNKYYADSVKGRFTISRDNSKDTMYLQMKTLRVDDTAVYYCARDPIVGSKTDGMDVWGQGTTVTVSS
VL: SYELTQPPSVSVSPGQTARITCSGDALADQYAYWYQQKPGQAPVMVIFKDNERPSGIPERFSGSSSGTTVTLTVSGVQSEDEADYYCQSVDSSGTYWMFGGGTKLTVL
notes: Tested as human IgG expressed in 293-F cells from the pCP9-lambda vector
B7: CB017.5L (antibody, V domains shown)
VH: QVQLVESGGGVVQPGRSLRLSCSASGFTFSVYAMHWVRQAPGQGLEWVAIIWYDGSNKYYADSVKGRFTISRDNSKETLYLQMNSLRVEDTAVYYCARDPIVGHTRDGLDVWGQGTTVTVSS
VL: SYELTQPPSVSVSPGQTARVTCSGDAMAEQYTYWYQQKPGQAPVLIIFKDTERPSGIPERFSGSSSGTTVTLTISGVQTEDEADYYCQSTDSSGTSWVFGGGTKLTVL
notes: as for B1
B8: CB073.1L (antibody, V domains shown)
VH: QVQLVESGGGVVQPGRSLRLSCAASGFTFYNYAVHWVRQAPGKGLEWVAVISHDGVNKDYADSVKGRITLSRDNSKNTVYLQLNSLRPEDTAVYYCARDRSYYFGGSVFHLYFDYWGQGTLVTVSS
VL: QSVLTQPPSVSGAPGQRVIISCTGSSSNIGAGHDVHWYQQLPGTAPRLLIYANTNRPSGVPDRFSASKSGNSASLVITGLQAEDEADYFCQSHDSSLSGVLFGGGTKLTVL
notes: as for B1
B9: CB047.1 (antibody, V domains shown)
VH: EVQLVESGGGLVQPGGSLRLSCAASGFSFSNYAMSWVRQAPGKGLEWVSDISGSGNSTNFADSVKGRFTISRDNSKNTLYLQMSSLRAEDTAVYYCAKFRVPTYCVNGICYQGLPGFDIWGQGTMVTVSS
VL: DIQMTQSPSSLSASVGDRVTITCQASQDISDYLNWYQQKPGKAPKLLIYDASNLETGVPSRFSASGSGTDFTFTISSLQPEDIATYYCQHYHNLPPLFGGGTKVEIK
notes: as for B3
B10: CB047.2 (antibody, V domains shown)
VH: EVQLVESGGGLVQPGGSLRLSCAASGFNFSNYAMSWVRQAPGKGLEWVSDISSSGKTTNSADSVKGRFTISRDNSKNTLFLQMSSLRADDTAVYYCAKFRVPTYCVNGICYQGLPGFDIWGQGTMVTVSS
VL: DIQMTQSPSSLSASVGDRVTITCQASQDISDYLNWYQQKPGKAPKLLIYDASNLETGVPSRFSASGSGTDFTFTISSLQPEDFATYYCQHYHNLPPLFGGGTKVEIK
notes: as for B3
B11: CB065.1 (antibody, V domains shown)
VH: QVQLVESGGGVVQPGRSLRLSCAASGFTFSNYGMHWVRQAPGKGLEWVTIISYDESTTLYADSVKGRFTISRDNSKNTVYLQMNSLRPEDTAVYYCARDHFDPSGYFWYFDLWGRGTLVTVSS
VL: DIVMTQSPLSLSVTPGQPASISCKSSQSLLQRDGKTYLYWYLQKPGQSPQLLIYEVSSRFSGVPDRFSGSGSGTDFTLKISRVEAEDVGVYYCMQGIRLPRTFGQGTKVEIK
notes: as for B3

Experiments:
[1] = molecular target: T1, Sym-1706 (RSV G central conserved …); assay: ELISA, biotinylated peptide on avidin plate
[2] = molecular target: T2, Sym-1789 (RSV-G type B central region …); assay: ELISA, biotinylated peptide on avidin plate
[3] = molecular target: T3, Sym-1705 (RSV-G type A central region …); assay: ELISA, biotinylated peptide on avidin plate
[4] = molecular target: G protein of RSV B/18537 (ATCC Cat. No. VR-1580), on virus (Respiratory syncytial virus B/18537); assay: cell-based or functional assay
[5] = molecular target: T4, Sym-1788 (RSV-G type B central region …); assay: ELISA, biotinylated peptide on avidin plate
[6] = molecular target: T5, Recombinant RSV attachment protein (G …); assay: ELISA, coated recombinant protein
[7] = molecular target: T6, G protein of RSV A/Long (ATCC Cat. No. …); assay: cell-based or functional assay
[8] = molecular target: T1, Sym-1706 (RSV G central conserved …); assay: Octet Red384, streptavidin tips with biotinylated peptide
Description: (§1) Binding of the mAbs to the RSV G peptides was also determined using Streptavidin sensor tips on the Octet Red384 (ForteBio).

[9] = molecular target: T3, Sym-1705 (RSV-G type A central region …); assay: as above
Description: as §1

[10] = molecular target: T1, Sym-1706 (RSV G central conserved …); assay: ELISA, antibody titrated on biotinylated peptide on avidin plate
[11] = molecular target: T3, Sym-1705 (RSV-G type A central region …); assay: as above

Row | Binder | binding result [1] | binding result [2] | binding result [3] | Neutralization IC50 (ng/mL), plaque reduction assay, RSV B/18537 [4] [ng/mL] | binding result [5] | binding result [6] | Neutralization IC50, plaque reduction assay, RSV A/Long [7] [ng/mL] | Binding (Octet) [RU] [8] [RU] | Binding (Octet) [RU] [9] [RU] | IC50 [10] [ng/mL] | IC50 [11] [ng/mL]
1 | B1 | binds | binds | binds | 5.4 |  |  |  |  |  |  | 
2 | B2 | binds | binds | binds | 5.6 |  |  |  |  |  |  | 
3 | B3 | binds | binds | binds | 4.4 | binds | binds |  |  |  |  | 
4 | B4 | binds | binds | binds | 16.3 | binds | binds |  |  |  |  | 
5 | B5 | binds | binds | binds | 2.7 |  |  |  |  |  |  | 
6 | B6 | binds |  | binds | 2 |  |  |  |  |  |  | 
7 | B7 |  |  |  | 3.8 |  |  | 3.5 | -0.02 | 3.17 | ~20 | ~20
8 | B8 | binds | binds | binds | 2.9 |  |  |  |  |  |  | 
9 | B9 | binds | binds | binds | 4.7 |  |  |  |  |  |  | 
10 | B10 | binds | binds | binds | 8.9 |  |  |  |  |  |  | 
11 | B11 | binds | binds | binds | 5.1 | binds | binds |  |  |  |  | 
